Assay: yeast display, Sf9 membrane polyspecificity reagent, FACS + sequencing; frameworks hold sequencing errors
Procedure, shortened: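 Synthetic nanobody libraries on Saccharomyces cerevisiae BJ5465 were galactose-induced for 36–48 hours, stained 1 hour at 4 °C with 10% biotinylated, detergent-solubilized Sf9 membrane reagent and enriched on streptavidin microbeads. FACS then separated cells into low and high (top ~1%) gates by anti-HA (expression) and streptavidin (reagent binding) fluorescence. Genes were colony-PCR amplified, MiSeq 2 × 250 sequenced and CDR-length filtered. A clone's polyreactivity label is that of its gate of origin.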
In the case of “QDQLVESGGGLVQAGGSLRLSCADSGRIFCINAMGWYRQAPGKERELVAAINWSGGSTYYADSVKGRFTISRDNAKNTVYLQMNSLKPEDTAVYYCAAQKYKRVGYWGQGTQVTVSS”, the “polyreactivity (PSR sort gate)” value is reported as “high polyreactivity”.
With “QDQLVESGGGLVQAGGSLRLSCASSGITIATNAMGWSRQAPGKERELVAAISWSGGSTYYADSVKGRFTISRDNAKNTVFLQMNSLKPEDTAVYYCATGYSVWYDYWGQGTQVTVSS” the “polyreactivity (PSR sort gate)” value was “low polyreactivity”.
With “QDQLVESGGGLVQAGGSLRLSCASSGSTFVRYAMGWYRQAPGKERELVATISKSGGSTSYADSVKGRFTISRDNAKNTVYLQMNSLKPEDTAVYYCAADFLYIWAIFDYWGQGTQVTVSS” the “polyreactivity (PSR sort gate)” value was “low polyreactivity”.
For “QDQLVESGGGLVQAGGSLRLSCDASGRIFWVYVMGWYRQAPGKERELVADITSIGGSTYYADSVKGRFTISRDNAKNTVYLQMNSLKPEDTAVYSCAADVDGYPYYQYKMGYWGQGTQVTVSS”, the “polyreactivity (PSR sort gate)” value was “low polyreactivity”.
In the case of “QDQLVESGGGLVQAGGSLRLSCSASGRIFTRNTMGWYRQAPGKERELVAAITSRGGSTYYADSVKGRFTISRDNAKNTVYLQMNSLKPEDTAVYDCAADKPRSYYYWGQGTQVTVSS”, the “polyreactivity (PSR sort gate)” value is reported as “high polyreactivity”.
With “QDQLVESGGGLVQAGGSLRLSCSASGRTFHRNAMGWYRQAPGKERESVAAITGDGRTNYADSVKGRFTISRDNAKNTVYLQMNSLKPEDNAVYYCAARFSYRSYDYWGQGTQVTVSS” the “polyreactivity (PSR sort gate)” value was “low polyreactivity”.
In the case of “QDQLVESGGGLVQAGGSLRLSSAASGLTLHGNAMGWYRHAPGKERELVATITSSGGSTFYADSVKGRFTLSRDNAKNTVYLKMNSMKPEDTAVYYCNADAPYSVDYYVRFDYWGQGTQVTVSS”, the “polyreactivity (PSR sort gate)” value is reported as “low polyreactivity”.
For “QDQLVESGGGLVQAGGSLRLSSAASGSIFRGYAMGWYRQAPGKERELVAAITFSGGSTYADSVKGRFTISRDNAKITVYLQMNSLKPEDTAVYYCAAKRTGHNWFTVYPYYSWGQGTQVTVSS”, the “polyreactivity (PSR sort gate)” value was “low polyreactivity”.
For “QDQLVESGGGLVQAGGSLRLTCAASGSIFRYYVMGWYRQAPGKERELVAGISSSGGRTYYADSVKGRFTISRDNANNTVYLQMNSLKPEDTAVYYCNAVTSRRPYDYWGHGTQVTVSS”, the “polyreactivity (PSR sort gate)” value was “high polyreactivity”.
For “QDQLVESGGGLVQAGGSLRLTCAASGSIFSANVMGWYRQAPGKERELVAAIRRGGTTYYADSVKGRFTISRDNSKNTVYLQMNRLNPEDSAVYYCATDGIFGSYLRFEVAYDYWGQGTQVTVSS”, the “polyreactivity (PSR sort gate)” value was “low polyreactivity”.
With “QDQLVESGGGLVQAGGSLRLTCAASGSIIVRYAMGWYRQAPGKERELVASISKRGGSTYYADSVKGRFTISRDNAKNTVYLQMNSLKPEDTAVYYCAAVGYYLVKFDYWGQGTQVTVSS” the “polyreactivity (PSR sort gate)” value was “high polyreactivity”.
With “QDQLVESGGGLVQAGGSLSLSCAASGSIFETYDMGWYRQAPGKERELVAAISLSGGSTYYADSVKGRFTISRDNAKNTVYLQMYSLKPEDTAVYYCASDTYYVSYGYYYWGLGTQVTVSS” the “polyreactivity (PSR sort gate)” value was “low polyreactivity”.
With “QDQLVESGGGLVQAGRSLRLSCAASGRTFRTYTMGWYRQAPGKERELVAAISRGGSTNYADSVKGRFTISRDNEKNTVYLQMNSLKPEDTAVYYCNAKASFCSPYDYWGQGTQVTVSS” the “polyreactivity (PSR sort gate)” value was “high polyreactivity”.
In the case of “QDQLVESGGGLVQAGVSLRLICAASGRTFYLYAIGWYRQAPGKERELVAAITWGGATTYYADSVKGRFTISRDNAKNTVYLQMNSLKPEVTAVYYCAAGGYTVWHYQYYAMDYCGQGTQVTVSS”, the “polyreactivity (PSR sort gate)” value is reported as “low polyreactivity”.
For “QDQLVESGGGLVQAVGSLRLSCAASGFTFYRNAMGWYRQAPGKERELVAAITWSGTSTYFADSVKGRFTISRDNAQNTVYLQLNSLKPEDTAVYYCNARGFQKSDPRGYLILNYWGQGTQVTVSS”, the “polyreactivity (PSR sort gate)” value was “high polyreactivity”.
For “QDQLVESGGGLVQAVGSLRLSCAASGSTFGLYAMGWYRQAPGKERELVAAITIRGGSTYYADSVKGRFTISRDNAKKTVYLQMNSLKPEDTAVYYCAADYWYGCFEYWGQGTQVTVSS”, the “polyreactivity (PSR sort gate)” value was “low polyreactivity”.
In the case of “QDQLVESGGGLVQEGGSLRLICAASGRTLQSYAMGGYRQAPGKERELVAAISGGASTYADSVKGRFTISRDNAKNTVYLQMNSLKPEDTAVYYCAADDDPVPTYEYDYWGQGTQVTVSS”, the “polyreactivity (PSR sort gate)” value is reported as “low polyreactivity”.
For “QDQLVESGGGLVQEGGSLRLSCAASGSTFPYNAMGWYRQAPGKERELVAAITRRAGRTYYADSVKGRFTISRDNAKNTVYLQLNSLKTEDTAVYYCAKSYQRGVYHYVYWGQVTQVTVSS”, the “polyreactivity (PSR sort gate)” value was “high polyreactivity”.
For “QDQLVESGGGLVQEGGSLRLSCAAYGTIFQIYAMGWYIQAPGKERELVAAINSGGISKYADSVKGRFTISRDNAKNSVYLQMNSLTPADTAVYYCAASVDTGRYSVYYHGYTYDYWGQGTQVTVSS”, the “polyreactivity (PSR sort gate)” value was “low polyreactivity”.
In the case of “QDQLVESGGGLVQWGRSLGIRCAASGRIFNVKAMGWYRQAPGNEREFDAAISGSVGSTYYADSVKGRFTISRDNAKYSVYLQHNSLKRLDTAVYYCAARYGYDRNRRPGYVYWGQGTQVTVSS”, the “polyreactivity (PSR sort gate)” value is reported as “low polyreactivity”.
In the case of “QDQLVESGGGVVQAGGSLRLSCAASGSIFAYNAMGWYRQAPGKERELVAAITDSGGSTFYADSVKGRFTISRDNAKNTVYLQMNSLKPEDTAVYYCATSGDRLVWGQGTQVTVSS”, the “polyreactivity (PSR sort gate)” value is reported as “low polyreactivity”.
With “QDQLVESGRGIFKAGGSLRLSCAASGSIFGDNAMGWSRHAPGKDRELVAAISSGGPTYADSVKGRFTISRDNAKNTVYLQMNSLKAEDSAVYFCNATDGINPYDLTDFEFDYWGQGTEVTVSS” the “polyreactivity (PSR sort gate)” value was “low polyreactivity”.
With “QDQLVESGRGLVQAGGNLRLSCAPSRSIFTTYAMGWYRQARGKERHFVATITSSDSTNYADSVKGRFTISRDNAKNTVYLQMNSLNPEETAVYYCNAGGDRTVSVAWYSADDFWGQGTQVTVSS” the “polyreactivity (PSR sort gate)” value was “low polyreactivity”.
With “QDQLVESGRGLVQAGGSLRLSCAASGSTFDGKAMGWSRQAPGKERELVATISNSGGRSYYADSVKGRFTISRDNAKNTVYLQMNSLKPEETAVYYCAADHPAFGPGYSFDYWGQGTQVTVSS” the “polyreactivity (PSR sort gate)” value was “low polyreactivity”.
For “QDQLVESGVGLVHAGGSLRLSCAATGRIFTYNAMGWYRQAPWKEREVVAAITSSGGSTYYADSVKGRFTISRDNAKNTVYLQMNSLKQEDSAVSYCATVRRGRDYWGQGTQVTVSS”, the “polyreactivity (PSR sort gate)” value was “high polyreactivity”.
With “QDQLVESGVGLVQAGGSHRLSCAASGSIFGWYARGWYRQAPGKERELGATITTGGSTNYADSVKGRFTISRDNAKNTVYLQMNSLKPEDTAVYYCAAGYNTWYGQYGYWGQGTQVTVSS” the “polyreactivity (PSR sort gate)” value was “low polyreactivity”.
In the case of “QDQLVESGVGLVQAGGSLRLSCASSGRIFDPYAMGWYRQAPGKERELVARITWRGGRTYYADSVKVRFTISLDNAKNTVYLQMNSLKPEDTAVFYCNADFYYRYYCAYDYWGQGTQVTVSS”, the “polyreactivity (PSR sort gate)” value is reported as “high polyreactivity”.
With “QDQLVESRGALVQAGGSLRLSCAASGITFVRNAMGWYRQAPGKERELVAAISSGGSTYYADSVKGRFTISRDNAKNTVYLQMNSLTREDTAVYYCAVLSSWRFSGYDYWGQGSQVTVSS” the “polyreactivity (PSR sort gate)” value was “low polyreactivity”.
For “QDQLVESRGGLVQAGGSLRLSCAASGIIFGYYAMGWYRQAPGKERELVAAISRRGGSTYYADSVKGRFTISRDNAKNTVYLQMNSLKPEDTAVYYCAAVELRLSTPDMESWGQGTQVTVSS”, the “polyreactivity (PSR sort gate)” value was “high polyreactivity”.
In the case of “QDQLVESVGGLVQAGGSLRLSCAASASTFGSNAMGWYRQAPGKDREFVAAISRRGGSTYYADSVKGRFTFSRDNAKNTVYLQMNSLKPEDTAVYYCAADYISLREEHYWGHGTQVTVSS”, the “polyreactivity (PSR sort gate)” value is reported as “high polyreactivity”.
With “QDQLVESVGGLVQAGGSLRLSCAASGLIFYYYDMGWYRQAPGKERELVAAISSRGSSTYYADSVKGRFTISRVNAKNTVYLQMNSLKPEDTAVYYCAADSVSKYFGYDYWGQGTQVTVSS” the “polyreactivity (PSR sort gate)” value was “high polyreactivity”.
In the case of “QDQLVESVGGLVQAGGSLRLSCAASGSIFNRYVMGCYSQAPGKERELVAAMSRRGGNTYYADSVKGRFTISRDNAKNTVYLQMNSLKPEATAVYYCAADYSYYYGYDYWGQGTQVTVSS”, the “polyreactivity (PSR sort gate)” value is reported as “high polyreactivity”.
For “QDQLVESVGGLVQAGGSLRLSCAASGSTISLYAMGWYRQAPGKERELVAAISQSGSRTYFADSVKGRFTISRDNAKNTVYLQMISLKQEDTAVYYCAAYSPQTYLRWTYGYWGQGTQVTVSS”, the “polyreactivity (PSR sort gate)” value was “high polyreactivity”.
In the case of “QDQLVQSGGGLVQAGGSLRKSCAASGSTFNPNTMGWNKQAPGKERELVASITWRGGRTYYADSVKGRFTISRDNAKNTVSLQMNSLKPEDTAVFYCASVTFSYDGYDYWGQGTQVTVTS”, the “polyreactivity (PSR sort gate)” value is reported as “low polyreactivity”.
In the case of “QDQLVQSGGGLVQAGGSLRLSCAASGRTFGKYAMGWYRQAPGKERELVAAITGGGGTKYADSVKGRFTISGDNAKNSVYLQMNSLKPEDTAVYYCAAASGSRRHGYWGQGTQVTVSS”, the “polyreactivity (PSR sort gate)” value is reported as “high polyreactivity”.
For “QDQLVQSGGGLVQAGGSLRLSCDASGSTLNWYAMGRYRQAPGKERELVAVITSSGVSTYYADSVKGRFTISRDNAKNTVYLQMNSLKPEDTAVYYCNAKWYRWQRGTVKYDYWGQGTQVTVSS”, the “polyreactivity (PSR sort gate)” value was “low polyreactivity”.
For “QDQRVESGGGLVQAGGSLRLSCAASGRTFKGNARGWYRQAPGKERELVAAISKSGGRTYYADSVKARFTISRDNAKNTVYLQMNSLKPEDTAVYYCAVDEGPTIVRFGYSGQGTQVTVSS”, the “polyreactivity (PSR sort gate)” value was “high polyreactivity”.
For “QEHLVESGGGLVQAGGSLRLSCAAYGSIFVSYAMGWYRQAPGKERELVAAISWSGGSTYYADSVKGRFTISRDNAKNTVYLQMNSLKPEDTAVYYCNGVPSEGFDWGQGTQVTVSS”, the “polyreactivity (PSR sort gate)” value was “low polyreactivity”.
In the case of “QEQLQESGGCLVQAGGSLRLSCAASGSIFKVVDMGLYRQSPAKEREFVATIGEGGKTYYADSVKGRFTISRDNEKNTVYLQMNSLKPEDTAVYFYAVVLGTSYRYTYWGEGTQVTVSS”, the “polyreactivity (PSR sort gate)” value is reported as “low polyreactivity”.
With “QEQLQESGGGLEQPGGSLRLSCAASGSISGSSTMGWYRQAQGKERELVASIAVGANTNYADSAKGRFTISRDNAKNPVYLQMNSLKPEDTAVYYCAVDYYIYYFHYWGQATQVTVSS” the “polyreactivity (PSR sort gate)” value was “high polyreactivity”.
For “QEQLQESGGGLVQACGSLRLSCAASGSISGSSTMGWYRQAPGKERELVASIAVGANTNYADSAKGRFTISRDNAKTTVYLQMNSLKPEDSAVYYCAADYWFGYGTYEYWGQGTQVTVSS”, the “polyreactivity (PSR sort gate)” value was “high polyreactivity”.
In the case of “QEQLQESGGGLVQAGCSLRLSCAANGYIFSVEYMGCYCLAPGKEREFVATINYDTSTYYADSVKGRFTISRDNAKNTVYLQMNSLKPEDTAVYYCAAYFYAYRSPGYWGLGTQVTVSS”, the “polyreactivity (PSR sort gate)” value is reported as “high polyreactivity”.
For “QEQLQESGGGLVQAGGSLCLSCAASGTIFFDGDMGWYRQAPGKEREFVAAINPGGSAYYADSVKGRLPLAAITHTVYLQMNSLKPEDTAVYYCAAKLFDVYGYYYWGQGTHVTVSS”, the “polyreactivity (PSR sort gate)” value was “low polyreactivity”.

From the nanobody polyreactivity screen of Harvey et al. (2022)
